Results: US20220259268A1

Molecular target: neutral avidin (UniProt P02701)
Assay: dynamic light scattering; each protein alone peaks near 10 nm

neutral avidin, sequence (P02701 25-152): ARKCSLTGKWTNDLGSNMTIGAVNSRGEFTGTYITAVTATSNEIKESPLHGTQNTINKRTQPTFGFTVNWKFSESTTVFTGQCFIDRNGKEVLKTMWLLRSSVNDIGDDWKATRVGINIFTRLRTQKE

Nhead recombinant protein (AtaA59-325-GCN4pII-His)
particle size at the peak of the mixture (DLS): > 1000 nm
